Target: HHV-6B U14 N-terminal domain (U14-NTD), residues 2-458 (human herpesvirus 6B (HHV-6B) strain HST)
Test: crystal structure

**Q.** With “HHV-6B U14 N-terminal domain (U14-NTD), residues 2-458 (domain or fragment)” as the substance, how does the stoichiometry N read?
**A.** 2

— publication PMC4859480
